Patent US20210380678A1 (SURROZEN OPERATING, published 2021)

What was measured:
[1] = target: human transferrin receptor 1 (TFR1), on cells (human, UniProt P02786 1-760); experiment: cell-based or functional assay
[2] = target: T1, Fc portion of human IgG1-fused LGR5-ECD (R&D systems) (human, UniProt O75473 22-557, limits assumed); experiment: BLI (Octet), LGR5-ECD-Fc on AHC sensor
T1 construct: extracellular domain; Bought reagent; also called LGRS; recombinant LGR5 protein; not shown: Fc portion of human IgG1
T1 sequence (looked up): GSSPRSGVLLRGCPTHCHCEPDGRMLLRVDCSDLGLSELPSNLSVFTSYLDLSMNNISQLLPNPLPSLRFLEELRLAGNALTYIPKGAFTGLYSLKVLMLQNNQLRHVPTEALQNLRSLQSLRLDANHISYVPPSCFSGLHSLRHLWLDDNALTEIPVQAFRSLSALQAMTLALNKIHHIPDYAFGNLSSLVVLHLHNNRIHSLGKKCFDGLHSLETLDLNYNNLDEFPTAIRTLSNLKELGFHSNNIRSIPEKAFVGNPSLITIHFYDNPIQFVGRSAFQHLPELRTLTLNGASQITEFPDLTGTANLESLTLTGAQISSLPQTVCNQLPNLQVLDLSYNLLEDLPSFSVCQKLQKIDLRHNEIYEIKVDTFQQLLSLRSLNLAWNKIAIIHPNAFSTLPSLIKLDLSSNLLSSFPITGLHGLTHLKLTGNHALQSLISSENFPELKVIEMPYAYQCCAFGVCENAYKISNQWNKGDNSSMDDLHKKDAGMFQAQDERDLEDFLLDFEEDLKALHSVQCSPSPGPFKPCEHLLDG
Protocol: (§1) Affinity measurement: Binding kinetics of the RSPO-derived proteins to LGRS, RNF43, or ZNRF3, and binding of the anti-ASGR Fabs to human and/or mouse ASGR1 were determined by bio-layer interferometry (BLI) using Octet Red 96 (PALL ForteBio, Fremont, CA) instruments at 30° C., 1000 rpm with either streptavidin (SA) or anti-hIgG Fc capture (AHC) biosensors. […] Following capture of ECDs of RNF43, ZNRF3 or LGRS, the biosensors were dipped into wells containing the relevant test molecules at 7 different concentrations in running buffer plus a well with only running buffer as a reference channel. KD was determined by steady-state analysis based on the average responses between 140 to 145 seconds of association phase, for binding to LGRS, RNF43, and ZNRF3. For the binding to ASGR, KD was determined by curve model fitting using the Octet® Red data analysis software (Fortebio)

[3] = target: T2, human RNF43 extracellular domain (hRNF43 ECD) (human, UniProt Q68DV7 44-197, biotinylated (His-Avi tag)); experiment: BLI (Octet), biotinylated RNF43 ECD on SA sensor
T2 construct: Expressed with a His-Avi tag at the N-terminus and biotinylated; also called human RNF3 (Q44-D198)
T2 sequence: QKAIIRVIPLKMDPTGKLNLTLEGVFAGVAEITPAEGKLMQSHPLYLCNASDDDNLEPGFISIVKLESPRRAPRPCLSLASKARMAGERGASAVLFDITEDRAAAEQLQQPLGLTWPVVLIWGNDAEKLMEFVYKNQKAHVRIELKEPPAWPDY
Protocol: as §1

[4] = target: T3, human ZNRF3 extracellular domain (hZNRF3 ECD) (human, UniProt Q9ULT6 56-219, biotinylated (His-Avi tag)); experiment: BLI (Octet), biotinylated ZNRF3 ECD on SA sensor
T3 construct: Expressed with a His-Avi tag at the N-terminus and biotinylated; also called ZRNF3
T3 sequence: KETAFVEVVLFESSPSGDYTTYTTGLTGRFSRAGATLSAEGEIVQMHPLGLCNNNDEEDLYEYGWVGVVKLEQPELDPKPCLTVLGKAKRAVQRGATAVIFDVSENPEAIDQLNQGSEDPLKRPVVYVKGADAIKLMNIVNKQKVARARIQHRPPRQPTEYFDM
Protocol: as §1

[5] = target: T2, human RNF43 extracellular domain …; experiment: ELISA (binding specificity)
[6] = target: T3, human ZNRF3 extracellular domain …; experiment: ELISA (binding specificity)
[7] = target: T3, human ZNRF3 extracellular domain …; experiment: BLI (Octet) KD grade: * = KD >= 1 uM
Protocol: (§2) Binding characterization of recombinant Fabs or IgG' s was carried out using Bio-Layer Interferometry (BLI) using the Octet Red 96 platform (PALL ForteBio, Fremont, Calif.) with streptavidin (SA) coated biosensors (PALL ForteBio,). […] Following immobilization, sensors were dipped into samples containing test molecules at seven concentrations. Values for KD were determined by fitting the resulting data with a 1:1 binding model.

[8] = target: T3, human ZNRF3 extracellular domain …; experiment: BLI (Octet), biotinylated antigen on SA sensor, 1:1 fit
Protocol: as §2

[9] = target: T4, human ASGR1 extracellular domain (hASGR1 ECD) (human, UniProt P07306 62-291, biotinylated (His-Avi tag)); experiment: BLI, Fab on hASGR1; KD only in the figure
T4 construct: His-Avi tag at the N-terminus, biotinylated for BLI; also called human ASGR1 ECD
T4 sequence: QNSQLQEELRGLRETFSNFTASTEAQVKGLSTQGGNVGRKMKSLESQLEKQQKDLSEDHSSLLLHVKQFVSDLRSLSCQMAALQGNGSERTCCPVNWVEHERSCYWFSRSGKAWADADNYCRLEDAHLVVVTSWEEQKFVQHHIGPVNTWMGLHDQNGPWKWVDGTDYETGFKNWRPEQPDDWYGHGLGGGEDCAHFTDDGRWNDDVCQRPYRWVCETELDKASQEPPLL

Sequence of human transferrin receptor 1 (TFR1), on cells (P02786 whole entry, the tested form may be a part): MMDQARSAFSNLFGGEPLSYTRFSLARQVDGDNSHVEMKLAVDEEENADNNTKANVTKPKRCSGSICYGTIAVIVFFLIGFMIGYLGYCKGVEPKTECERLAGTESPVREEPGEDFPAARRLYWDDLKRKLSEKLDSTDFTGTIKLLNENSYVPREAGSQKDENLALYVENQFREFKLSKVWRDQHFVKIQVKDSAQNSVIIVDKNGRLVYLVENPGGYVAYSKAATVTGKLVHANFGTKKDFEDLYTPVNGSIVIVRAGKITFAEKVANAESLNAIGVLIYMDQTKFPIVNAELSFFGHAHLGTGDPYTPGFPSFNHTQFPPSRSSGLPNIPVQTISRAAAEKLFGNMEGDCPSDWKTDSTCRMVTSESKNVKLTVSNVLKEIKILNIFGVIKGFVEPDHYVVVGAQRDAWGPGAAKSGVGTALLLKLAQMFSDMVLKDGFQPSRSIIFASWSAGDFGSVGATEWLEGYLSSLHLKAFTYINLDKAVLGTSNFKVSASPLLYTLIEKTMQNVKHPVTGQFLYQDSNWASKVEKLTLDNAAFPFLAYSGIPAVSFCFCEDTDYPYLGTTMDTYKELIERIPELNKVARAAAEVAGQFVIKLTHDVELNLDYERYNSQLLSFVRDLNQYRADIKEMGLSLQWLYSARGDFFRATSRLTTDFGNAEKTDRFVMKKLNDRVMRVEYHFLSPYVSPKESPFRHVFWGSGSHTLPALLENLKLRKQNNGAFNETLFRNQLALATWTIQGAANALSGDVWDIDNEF

B1: αTFR1-RSPO2-RA (anti-TFR1, RSPO2 (F105R/F109A)) (other)
chain: QVQLQQSGPELVRPGVSVKISCKGSGYTFTDYAMHWVKQSHAKSLEWIGGISTYFGRTNYNQKFKGRATMTVDKSSSTAYMELARLTSEDSALYYCARGLSGNYVMDYWGQGTSVTVSSGGGGSGGGGSGGGGSDIVLFQSPASLAVSLGQRATISCRASESVDDYGNSFMHWYQQKPGQPPKLLIYRASNLESGIPARFSGSGSRTDFTLTINPVEADDVATYYCQQSNEAPPTFGGGTKLEIRGSGGSNPICKGCLSCSKDNGCSRCQQKLFFFLRREGMRQYGECLHSCPSGYYGHRAPDMNRCARCRIENCDSCRSKDACTKCKVGFYLHRGRCFDECPDGFAPLEETMECVEGGDYKDDDDKGSHHHHHHHH
notes: FLAG-His tag; also called αTFR-RSPO2-RA
In the case of B1, the “potency in the HEK293 STF reporter assay with Wnt sources” value [1] is reported as about 20 fold and the binding result [2] is reported as “no binding”.

B2: αTFR1-RSPO2-5mut (anti-TFR1, RSPO2 (R65A/R69A/Q70A/F105A/F109A)) (other)
chain: QVQLQQSGPELVRPGVSVKISCKGSGYTFTDYAMHWVKQSHAKSLEWIGGISTYFGRTNYNQKFKGRATMTVDKSSSTAYMELARLTSEDSALYYCARGLSGNYVMDYWGQGTSVTVSSGGGGSGGGGSGGGGSDIVLFQSPASLAVSLGQRATISCRASESVDDYGNSFMHWYQQKPGQPPKLLIYRASNLESGIPARFSGSGSRTDFTLTINPVEADDVATYYCQQSNEAPPTFGGGTKLEIRGSGGSNPICKGCLSCSKDNGCSRCQQKLFFFLRAEGMAAYGECLHSCPSGYYGHRAPDMNRCARCRIENCDSCRSKDACTKCKVGFYLHRGRCFDECPDGFAPLEETMECVEGGDYKDDDDKGSHHHHHHHH
notes: FLAG-His tag; also called αTFR1-RSPO2-Smut; αTFR-RPOS-5mut
B2: no binding [3]; no binding [2]; no binding [4].

B3: αTFR1-RSPO2-WT (anti-TFR1, RSPO2 wild type) (other)
chain: QVQLQQSGPELVRPGVSVKISCKGSGYTFTDYAMHWVKQSHAKSLEWIGGISTYFGRTNYNQKFKGRATMTVDKSSSTAYMELARLTSEDSALYYCARGLSGNYVMDYWGQGTSVTVSSGGGGSGGGGSGGGGSDIVLFQSPASLAVSLGQRATISCRASESVDDYGNSFMHWYQQKPGQPPKLLIYRASNLESGIPARFSGSGSRTDFTLTINPVEADDVATYYCQQSNEAPPTFGGGTKLEIRGSGGSNPICKGCLSCSKDNGCSRCQQKLFFFLRREGMRQYGECLHSCPSGYYGHRAPDMNRCARCRIENCDSCFSKDFCTKCKVGFYLHRGRCFDECPDGFAPLEETMECVEGGDYKDDDDKGSHHHHHHHH
With B3 the “EC50 in the HEK293 STF reporter assay with Wnt sources” value [1] was about 20 fold and the “potency in the HEK293 STF reporter assay with Wnt sources” value [1] was about 400 fold.

B4: 020S-D07 (antibody, V domains shown)
VH: QVQLVQSGAEVKKPGSSVKVSCKASGGTFSNTDINWVRQAPGQGLEWMGGIIPIFGTANYAQKFQGRVTITADESTSTAYMELSSLRSEDTAVYYCVGGRSGWIWYFDLWGRGTLVTVSS
VL: DIQMTQSPSSLSASVGDRVTITCRASQSISRWLAWYQQKPGKAPKLLIYDASSLETGVPSRFSGSGSGTDFTLTISSLQPEDFATYYCQQAYSFPWTFGQGTKVEIK
B4: binds [5]; binds [6].

B5: 020S-F07 (antibody, V domains shown)
VH: EVQLLESGGGLVQPGGSLRLSCAASGFTFSNYAMGWVRQAPGKGLEWVSYISRSSSTIYYADSVKGRFTISRDNSKNTLYLQMNSLRAEDTAVYYCARRRDGYNWGYWGQGTLVTVSS
VL: DIQMTQSPSSLSASVGDRVTITCRASQDISNSLNWYQQKPGKAPKLLIYAASTLQSGVPSRFSGSGSGTDFTLTISSLQPEDFATYYCQQSYSPPHTFGGGTKVEIK
B5: binds [5]; binds [6].

B6: 028S-E10 (antibody, V domains shown)
VH: QVQLVQSGAEVKKPGASVKVSCKASGYTFTSYYMHWVRQAPGQGLEWMGWINPNTGGTKSAQKFQGRVTMTRDTSTSTVYMELSSLRSEDTAVYYCARVLRGSLGFDYWGQGTLVTVSS
VL: DIQMTQSPSSLSASVGDRVTITCRASQDISRYLAWYQQKPGKAPKLLIYAASTVESGVPSRFSGSGSGTDFTLTISSLQPEDFATYYCQQSYRSPYTFGQGTKLEIK
B6 showed a KD [7] of at least 1 µM and a Kd [8] of 4.16 µM.

B7: αGFP-RSPO2-5mut (anti-GFP, RSPO2 (R65A/R69A/Q70A/F105A/F109A)) (other)
chain: QVQLVESGGGLVQPGGSLRLSCAASGFTFSRYGMHWVRQAPGKGLEWVSGISSIGSNTYYADSVKGRFTISRDNSKNTLYLQMNSLRAEDTAVYYCARWYKTYIDVWGQGTLVTVSSGGGGSGGGGSGGGGSDIELTQPPSVSVAPGQTARISCSGDNLGKKYVYWYQQKPGQAPVLVIYGDDERPSGIPERFSGSNSGNTATLTISGTQAEDEADYYCASYDSSHILIVFGGGTKLTVLGSGGSNPICKGCLSCSKDNGCSRCQQKLFFFLRAEGMAAYGECLHSCPSGYYGHRAPDMNRCARCRIENCDSCRSKDACTKCKVGFYLHRGRCFDECPDGFAPLEETMECVEGGDYKDDDDKGSHHHHHHHH
notes: scFv against GFP fused to the RSPO2 Fu1-Fu2 fragment with five mutations; FLAG-His tag; also called αGFP-RSPO2-Smut
B7: no binding [2].

B8: 024S-D03 Fab (Fab, V domains shown)
VH: QVQLQQSGPGLVKPSQTLSLTCAISGDSVSSNSAAWNWMRQSPSRGLEWLGRTYYRSKWYNDYAVSVKSRMTINPDTSRNQFSLQLNSVTLEDTAVYYCARWNHEEHYFDYWGQGTLVTVSS
VL: EIVLTQSPATLSFSPGERATLSCRASQSVGSYLAWYQQRPGQAPRPLIYDATNRATGIPTRFSGSGSGTDFTLTISSLEPEDFATYYCQHRRTFGRGTKLEIK
notes: Tested as Fab, identified by phage display
B8: binds [9].

B9: 024S-E03 Fab (Fab, V domains shown)
VH: QVQLQQSGPGLVKPSQTLSLTCAISGASVSSNSAAWNWIRQSPSRGLEWLGRTYYRSKWYNDYAVSVKSRITINPDTSKNQFSLQLNSVTPGDTAVYYCARWNHEEHYFDYWGQGTLVTVSS
VL: DVVMTQSPATLSFSPGERATLSCRASQSVGSYLAWYQQRPGQAPRPLIYDATNRATGIPTRFSGSGSGTDFTLTISSLEPEDFATYYCQHRRTFGRGTKLEIK
notes: as for B8
B9: binds [9].

B10: 024S-A04 Fab (Fab, V domains shown)
VH: QVQLQQSGPGLVKPSQTLSLTCAISGDSVSSNSVAWNWMRQSPSRGLEWLGRTYYRSKWYYDYAVSVKSRITINPDTSKNQFSLQLNSVTPEDTAVYYCASWTRGAFDIWGQGTMVTVSS
VL: DIQLTQSPATLSFSPGERATLSCRASQSVGSYLAWYQQRPGQAPRPLIYDATNRATGIPTRFSGSGSGTDFTLTISSLEPEDFATYYCQHRRTFGRGTKLEIK
notes: as for B8
B10: binds [9].
